These results are taken from patent US10801046B2, “Methods and materials for biosynthesizing multifunctional, multivariate molecules via carbon chain modification” (INVISTA NORTH AMERICA S.A.R.L., priority 2016, dated 2020).

The labels stand for the following.
B1: SEQ ID NO: 92: Treponema primitia thioesterase (protein)
chain: MDVWKESYPVGFTAVDESEGLTLAAAFDYFQEAARRHAEVLGVGQEPMVQAGQGWVLSRISVLVERRPRQGELITVSTWPRGWEKLFALRDFDIRDESDKPIVRARSCWLIVNIEKRRPLRPQATMEKLPLNEGRDALPGGGVGLAPLENLLKAGDRVAAYSDIDYNGHVNNARYVQWVQDIADPTALVQAKTLRLDINYLSEVKIHEPIELWTEPLPAESDAVYTLGVEGRRNGGAVFRAELRIKD
modifications: Treponema primitia (strain ATCC BAA-887 / DSM 12427 / ZAS-2)
notes: Treponema primitia thioesterase
B2: SEQ ID NO: 61: Congregibacter litoralis KT71 thioesterase (protein)
chain: MGLLLGLALLLTGQLARAESTAGERPRILVVGDSISAAYGMSLEQGWAALLERRLQTRWPGAQVINASISGDTSAGGARRLPKLLAEHSPDLVVIELGGNDGLRGYPTSKLEANLSFMAEAASTAGAEVLILPMEIPPNYGPRYTRSFRESFERAATDTGATLGPFLLDGIATEEQLMQQDGIHPTVEAQPMITDIVQPVIEALLALREAS
modifications: Congregibacter litoralis KT71
notes: Congregibacter litoralis KT71 thioesterase
B3: SEQ ID NO: 89: Clostridium cellulolyticum thioesterase (protein, listed as Clostridium cellulolyticum)
chain: MEPLSIYKKNYHVDYGDADFYKRLKLSYLFNYFQNIAGLHSENTNVGIRKLQNDYGAAWVMTRMLMDINRMPECNEEISIETWPVEPKKKMIDRNFIVRDMDGSILASAISTWVILDMEKREMVRIDSVIPPQYPEFLKSKAIDRKFDKLKPSGQLQPAYKKLVGFSDIDINGHVNNAKYIDYILDCFTVEKHGEYRVKSIQINYVNEAVAGDIISLYKDTVDMDGSDKAVYITGINEVDGKVNFESHIRVQ
modifications: Clostridium cellulolyticum (strain ATCC 35319 / DSM 5812 / JCM 6584 / H10)
notes: Clostridium cellulolyticum thioesterase
B4: SEQ ID NO: 94: Paenibacillus sp. IHBB 10380 thioesterase (protein)
chain: MGNIWTEEHLIYSNEIDYKANCRLSNLLSLMQRAADGDVEHMGGTRDQMVAHHLGWMLTTIDLACERMPIFNETLKITTWNKGTKGPLWLRDFRIFDENNQEIAKACTLWALVDIDKRKVLRPSAYPFNINSNHEDSVGPVPDKLNISDEVELYHSYSITVRYSGIDSNGHLNNSRYADLCMDTLTQSELDTLSILGFHITYYHEVKSAEQIQVLRSDHLEGYIYFRGQSLEDERYFEACLHVG
modifications: Paenibacillus sp. IHBB 10380
notes: Paenibacillus sp; IHBB 10380 thioesterase
B5: SEQ ID NO: 93: Oceanimonas sp. thioesterase (protein)
chain: MLRILVLLLCLVSPTVLADTLLILGDSLSAGYRMRSDQAWPHLLAEQWRREGRQVTVINASVSGDTTQGGLQRLPPLLQRHQPSLVLLELGGNDGLRGLPPGLIERNLERLIALAGDAGARVILTDIQLPPNYGRRYLQQFEQVFSRLASQHQLPLLPFFVAPLMGEQGMMMDDGIHPTVKAQPLIARQVGEFLTPYLTP
modifications: Oceanimonas sp. (strain GK1)
notes: Oceanimonas sp. thioesterase
B6: SEQ ID NO: 60: Escherichia coli thioesterase (protein)
chain: MNTTLFRWPVRVYYEDTDAGGVVYHASYVAFYERARTEMLRHHHFSQQALMAERVAFVVRKMTVEYYAPARLDDMLEIQTEITSMRGTSLVFTQRIVNAENTLLNEAEVLVVCVDPLKMKPRALPKSIVAEFKQ
modifications: Escherichia coli (strain K12)
notes: Escherichia coli thioesterase

For the assay, the system named is heptanedioyl-ACP methyl ester. Put plainly: Cell lysate in vitro thioesterase screen (DTNB, absorbance at 410 nm) on heptanedioyl-ACP methyl ester. The format is biochemical. The conditions noted are these: 0.33 mM acyl-ACP substrate, 30° C., 30 min.
B1: the “activity toward heptanedioyl-ACP methyl ester (hydrolysis)” value is “notable for their activity toward heptanedioyl-ACP methyl ester”.

As to B2, the “activity toward heptanedioyl-ACP methyl ester (hydrolysis)” value is on record as “notable for their activity toward heptanedioyl-ACP methyl ester”.

Consider B3, for which the “activity toward heptanedioyl-ACP methyl ester (hydrolysis)” value is recorded as “notable for their activity toward heptanedioyl-ACP methyl ester”.

Turning to B4, the “activity toward heptanedioyl-ACP methyl ester (hydrolysis)” value was “notable for their activity toward heptanedioyl-ACP methyl ester”.

As for B5, the “activity toward heptanedioyl-ACP methyl ester (hydrolysis)” value is recorded as “notable for their activity toward heptanedioyl-ACP methyl ester”.

B6: the “activity toward heptanedioyl-ACP methyl ester (hydrolysis)” value is “notable for their activity toward heptanedioyl-ACP methyl ester”.
